Source: patent US20140079706A1

Tests used:
Test in all cases: cell-based or functional assay
[1] = molecular target: CSF-1R on cynomolgous monocytes (cynomolgous)
[2] = molecular target: human wildtype CSF-1R (wt CSF-1R), full-length, on cells (human) (UniProt P07333)
[3] = molecular target: human mutant CSF-1R L301S Y969F, full-length, on NIH 3T3 cells (human) (UniProt P07333)

“Anti CSF-1R SC 2-4A5 (Santa Cruz Biotechnology, US) (antibody)” showed a % inhibition (of survival) = (100% - % survival), cynomolgous monocytes, 5 µg/ml antibody [1] of 69%, a % survival of cynomolgous monocytes at 5 µg/ml antibody (150 ng/ml huCSF-1, CellTiterGlo) [1] of 31% and a wtCSF-1R IC30 (cell viability, CellTiterGlo, 3D spheroids) [2] of 16.6 µg/mL. It also gave a wtCSF-1R IC50 (cell viability, CellTiterGlo, 3D spheroids) [2] of 10 µg/mL, a Mutant CSF-1R IC30 (cell viability, CellTiterGlo, 3D spheroids) [3] of 2.56 µg/mL and a Mutant CSF-1R IC50 (cell viability, CellTiterGlo, 3D spheroids) [3] of 10 µg/mL.
For “goat polyclonal anti-CSF-1R antibody ab10676 (abcam)”, the wtCSF-1R IC30 (cell viability, CellTiterGlo, 3D spheroids) [2] was 14.2 µg/mL, the % inhibition at 20 µg/ml, mutant CSF-1R cells [3] was 0% and the Mutant CSF-1R IC30 (cell viability, CellTiterGlo, 3D spheroids) [3] was over 20 µg/mL.
